Data published in patent US20090118184A1 (UNIVERSITY OF ROCHESTER, published 2009).

Tests used:
Assay in all cases: cell-based or functional assay
[1] = biological target: T1, factor VIIIa A1/A3C1C2 dimer, wild type (human, UniProt P00451 20-391; P00451 1709-2351)
T1 sequence 1: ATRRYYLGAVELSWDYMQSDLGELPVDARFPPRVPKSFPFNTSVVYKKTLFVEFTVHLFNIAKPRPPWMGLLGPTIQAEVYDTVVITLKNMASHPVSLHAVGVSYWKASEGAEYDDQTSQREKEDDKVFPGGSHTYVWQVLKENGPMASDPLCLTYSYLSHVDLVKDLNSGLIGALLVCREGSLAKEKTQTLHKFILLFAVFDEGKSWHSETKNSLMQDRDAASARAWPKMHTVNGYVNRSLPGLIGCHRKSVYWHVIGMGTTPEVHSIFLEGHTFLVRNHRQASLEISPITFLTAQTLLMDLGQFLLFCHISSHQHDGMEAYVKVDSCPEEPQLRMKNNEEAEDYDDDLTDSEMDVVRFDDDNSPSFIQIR
T1 sequence 2: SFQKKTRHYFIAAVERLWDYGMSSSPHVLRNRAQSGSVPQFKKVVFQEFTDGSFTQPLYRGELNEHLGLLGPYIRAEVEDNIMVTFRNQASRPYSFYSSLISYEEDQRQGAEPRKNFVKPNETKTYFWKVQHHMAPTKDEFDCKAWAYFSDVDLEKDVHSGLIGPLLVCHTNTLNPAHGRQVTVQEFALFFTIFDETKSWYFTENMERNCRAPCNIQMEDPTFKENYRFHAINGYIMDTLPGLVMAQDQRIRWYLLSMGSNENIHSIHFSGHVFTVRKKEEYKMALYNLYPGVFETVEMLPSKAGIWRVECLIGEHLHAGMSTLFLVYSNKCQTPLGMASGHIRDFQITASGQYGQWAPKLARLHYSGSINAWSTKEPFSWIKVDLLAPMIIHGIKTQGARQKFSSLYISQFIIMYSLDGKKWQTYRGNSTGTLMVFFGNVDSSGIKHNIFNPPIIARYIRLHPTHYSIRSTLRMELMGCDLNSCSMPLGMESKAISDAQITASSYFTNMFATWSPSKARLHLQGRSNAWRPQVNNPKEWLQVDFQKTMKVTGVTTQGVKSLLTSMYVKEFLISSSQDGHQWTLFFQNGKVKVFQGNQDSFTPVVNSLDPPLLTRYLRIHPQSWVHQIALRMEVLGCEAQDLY

[2] = biological target: T2, factor VIIIa A1/A3C1C2 dimer, H317A (human, UniProt P00451 20-391; P00451 1709-2351)
T2 chain 1: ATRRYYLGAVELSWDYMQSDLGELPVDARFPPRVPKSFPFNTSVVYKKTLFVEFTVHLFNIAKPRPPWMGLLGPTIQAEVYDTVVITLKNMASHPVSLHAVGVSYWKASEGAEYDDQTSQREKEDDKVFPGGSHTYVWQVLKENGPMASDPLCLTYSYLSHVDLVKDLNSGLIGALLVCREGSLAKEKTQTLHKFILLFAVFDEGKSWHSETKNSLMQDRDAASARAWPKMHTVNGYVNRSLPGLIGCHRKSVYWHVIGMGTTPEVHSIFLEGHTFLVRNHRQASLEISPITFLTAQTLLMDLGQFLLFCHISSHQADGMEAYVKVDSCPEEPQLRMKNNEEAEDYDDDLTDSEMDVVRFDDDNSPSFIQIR
T2 chain 2: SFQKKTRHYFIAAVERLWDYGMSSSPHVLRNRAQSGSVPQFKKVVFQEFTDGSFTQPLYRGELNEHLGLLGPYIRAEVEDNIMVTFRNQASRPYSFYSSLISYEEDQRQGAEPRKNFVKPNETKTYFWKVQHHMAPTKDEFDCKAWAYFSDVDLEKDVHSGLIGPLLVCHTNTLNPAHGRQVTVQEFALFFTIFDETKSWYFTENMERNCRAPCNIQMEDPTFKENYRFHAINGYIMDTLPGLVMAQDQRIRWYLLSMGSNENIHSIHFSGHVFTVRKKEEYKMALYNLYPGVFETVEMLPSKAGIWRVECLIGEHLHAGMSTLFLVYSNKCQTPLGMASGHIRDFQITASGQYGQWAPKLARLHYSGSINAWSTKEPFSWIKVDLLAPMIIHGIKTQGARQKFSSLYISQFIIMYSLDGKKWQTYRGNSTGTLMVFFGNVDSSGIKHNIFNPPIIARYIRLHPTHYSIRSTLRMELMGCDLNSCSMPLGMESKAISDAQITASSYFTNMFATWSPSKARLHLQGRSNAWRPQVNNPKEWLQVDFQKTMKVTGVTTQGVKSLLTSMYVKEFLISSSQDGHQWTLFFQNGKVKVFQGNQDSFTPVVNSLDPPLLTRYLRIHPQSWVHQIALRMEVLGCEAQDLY

[3] = biological target: T3, factor VIIIa A1/A3C1C2 dimer, Q1820A (human, UniProt P00451 20-391; P00451 1709-2351)
T3 sequence 1: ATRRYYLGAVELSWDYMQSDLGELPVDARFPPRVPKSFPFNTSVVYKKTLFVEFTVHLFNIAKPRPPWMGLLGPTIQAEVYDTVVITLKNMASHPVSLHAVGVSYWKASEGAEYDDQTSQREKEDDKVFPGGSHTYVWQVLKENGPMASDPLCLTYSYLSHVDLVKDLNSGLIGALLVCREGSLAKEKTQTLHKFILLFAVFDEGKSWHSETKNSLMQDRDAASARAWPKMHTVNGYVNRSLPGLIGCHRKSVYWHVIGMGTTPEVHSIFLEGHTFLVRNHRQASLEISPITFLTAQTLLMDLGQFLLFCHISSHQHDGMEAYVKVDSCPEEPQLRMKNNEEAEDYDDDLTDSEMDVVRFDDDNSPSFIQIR
T3 sequence 2: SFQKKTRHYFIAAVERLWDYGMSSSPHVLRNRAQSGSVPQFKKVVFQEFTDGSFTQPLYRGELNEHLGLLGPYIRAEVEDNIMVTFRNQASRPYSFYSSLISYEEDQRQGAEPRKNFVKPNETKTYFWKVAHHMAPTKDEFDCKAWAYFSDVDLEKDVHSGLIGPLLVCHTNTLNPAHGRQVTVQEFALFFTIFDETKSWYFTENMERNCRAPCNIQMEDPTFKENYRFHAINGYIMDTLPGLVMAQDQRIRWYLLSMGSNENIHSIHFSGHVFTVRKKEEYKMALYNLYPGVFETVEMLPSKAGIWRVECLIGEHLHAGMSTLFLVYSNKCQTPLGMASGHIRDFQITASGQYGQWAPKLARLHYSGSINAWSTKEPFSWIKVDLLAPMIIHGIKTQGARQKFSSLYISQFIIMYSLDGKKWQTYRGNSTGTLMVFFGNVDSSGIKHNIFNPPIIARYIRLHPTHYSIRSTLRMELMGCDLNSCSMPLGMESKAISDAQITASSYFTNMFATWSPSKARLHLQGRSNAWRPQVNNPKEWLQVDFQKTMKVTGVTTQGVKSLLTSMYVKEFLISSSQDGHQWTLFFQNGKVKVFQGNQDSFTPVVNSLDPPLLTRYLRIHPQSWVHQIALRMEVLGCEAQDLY

[4] = biological target: T4, factor VIIIa A1/A3C1C2 dimer, N1950A (human, UniProt P00451 20-391; P00451 1709-2351)
T4 sequence 1: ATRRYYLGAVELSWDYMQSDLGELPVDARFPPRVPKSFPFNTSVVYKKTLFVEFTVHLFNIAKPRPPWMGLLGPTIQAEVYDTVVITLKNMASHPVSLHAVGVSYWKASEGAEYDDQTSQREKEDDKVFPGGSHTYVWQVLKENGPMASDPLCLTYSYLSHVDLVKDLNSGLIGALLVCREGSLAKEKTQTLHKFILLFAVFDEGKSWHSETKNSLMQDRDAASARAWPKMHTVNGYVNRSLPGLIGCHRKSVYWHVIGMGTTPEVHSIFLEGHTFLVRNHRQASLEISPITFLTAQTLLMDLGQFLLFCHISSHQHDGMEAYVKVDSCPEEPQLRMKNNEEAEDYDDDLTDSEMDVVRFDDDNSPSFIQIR
T4 sequence 2: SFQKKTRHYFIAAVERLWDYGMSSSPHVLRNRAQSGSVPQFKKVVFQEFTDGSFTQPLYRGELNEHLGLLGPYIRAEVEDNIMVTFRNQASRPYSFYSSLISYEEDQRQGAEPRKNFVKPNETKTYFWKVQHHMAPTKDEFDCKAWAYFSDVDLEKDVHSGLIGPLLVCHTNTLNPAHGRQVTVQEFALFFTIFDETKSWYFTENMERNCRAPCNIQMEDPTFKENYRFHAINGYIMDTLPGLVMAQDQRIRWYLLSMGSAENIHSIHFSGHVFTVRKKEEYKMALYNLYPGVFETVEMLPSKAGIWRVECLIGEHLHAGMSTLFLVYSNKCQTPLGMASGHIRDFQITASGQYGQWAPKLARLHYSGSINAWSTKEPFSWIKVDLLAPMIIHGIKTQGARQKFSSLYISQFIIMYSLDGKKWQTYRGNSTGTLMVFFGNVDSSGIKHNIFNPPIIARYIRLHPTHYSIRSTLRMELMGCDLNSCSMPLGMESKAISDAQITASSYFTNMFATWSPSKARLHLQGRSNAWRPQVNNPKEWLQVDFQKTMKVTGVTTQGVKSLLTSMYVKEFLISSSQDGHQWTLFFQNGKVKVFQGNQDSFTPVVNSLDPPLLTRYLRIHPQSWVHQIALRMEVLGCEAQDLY

Factor VIIIa decay rate relative to wild type, FIXa (+) [1]: 1 relative to wild type | Factor VIIIa decay rate relative to wild type, FIXa (-) [1]: 1 relative to wild type | Factor VIIIa decay rate, FIXa (+) [1]: 0.0113 min⁻¹ | Factor VIIIa decay rate, FIXa (-) [1]: 0.0631 min⁻¹ | Factor VIIIa decay rate relative to wild type, FIXa (+) [2]: 1.28 relative to wild type | Factor VIIIa decay rate, FIXa (+) [2]: 0.0145 min⁻¹ | Factor VIIIa decay rate relative to wild type, FIXa (+) [3]: 1.01 relative to wild type | Factor VIIIa decay rate, FIXa (+) [3]: 0.0114 min⁻¹ | Factor VIIIa decay rate relative to wild type, FIXa (+) [4]: 1.73 relative to wild type | Factor VIIIa decay rate, FIXa (+) [4]: 0.0195 min⁻¹
B1: factor VIIIa A2 subunit, wild type (other)
chain: SVAKKHPKTWVHYIAAEEEDWDYAPLVLAPDDRSYKSQYLNNGPQRIGRKYKKVRFMAYTDETFKTREAIQHESGILGPLLYGEVGDTLLIIFKNQASRPYNIYPHGITDVRPLYSRRLPKGVKHLKDFPILPGEIFKYKWTVTVEDGPTKSDPRCLTRYYSSFVNMERDLASGLIGPLLICYKESVDQRGNQIMSDKRNVILFSVFDENRSWYLTENIQRFLPNPAGVQLEDPEFQASNIMHSINGYVFDSLQLSVCLHEVAYWYILSIGAQTDFLSVFFSGYTFKHKMVYEDTLTLFPFSGETVFMSMENPGLWILGCHNSDFRNRGMTALLKVSSCDKNTGDYYEDSYEDISAYLLSKNNAIEPR
